Test results taken from the supplement of paper PMC11908140.

B1: library; numbered along this chain (parent)
chain: MRKPRAAVGSGHRKQAASQEGRQKHAKNNSQAKPSACDGLARQPEEVVLQASVSSYHLFRDVAEVTAFRGSLLSWYDQEKRDLPWRRRAEDEMDLDRRAYAVWVSEVMLQQTQVATVINYYTGWMQKWPTLQDLASASLEEVNQLWAGLGYYSRGRRLQEGARKVVEELGGHMPRTAETLQQLLPGVGRYTAGAIASIAFGQATGVVDGNVARVLCRVRAIGADPSSTLVSQQLWGLAQQLVDPARPGDFNQAAMELGATVCTPQRPLCSQCPVESLCRARQRVEQEQLLASGSLSGSPDVEECAPNTGQCHLCLPPSEPWDQTLGVVNFPRKASRKPPREESSATCVLEQPGALGAQILLVQRPNSGLLAGLWEFPSVTWEPSEQLQRKALLQELQRWAGPLPATHLRHLGEVVHTFSHIKLTYQVYGLALEGQTPVTTVPPGARWLTQEEFHTAAVSTAMKKVFRVYQGQQPGTCMGSKRSQVSSPCSRKKPRMGQQVLDNFFRSHISTDAHSLNSAAQ

Variants of: B1
Assay: 8OG:A repair function score (normalized; synonymous = 0, nonsense = -1) (normalized log-likelihood score); higher = more repair activity (WT-like)
Conditions: with 8OG:A DNA repair reporter (GFP) in HEK-293 MUTYH KO cells
Summary of the method: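 GFP+ (repair) and GFP− bins of viable mCherry+ cells were collected at 72 h from MUTYH knockout HEK-293 cells bearing lentiviral MUTYH cDNA NNN codon-scan libraries in 10 pg/ml doxycycline, co-transfected with an 8OG:A GFP repair reporter and mCherry. Tile amplicons were sequenced, and per-tile Rosace fitness scores were normalized to a repair function score anchored on synonymous and nonsense distributions. Synonymous medians were set to 0 and nonsense to -1, with variants under 300 counts per million at the start removed.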
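Also: cells sorted at 72 h after reporter transfection.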

8OG:A repair function score of substitutions, site by site:
G356: P -0.0644; K -0.0901; F -0.253; H -0.148; I -0.348; D -0.142; Y -0.0505; W -0.0772; E -0.141; S -0.118; R -0.153; C -0.0641; T -0.197; N -0.277; V -0.13; M -0.207; L -0.2; A -0.11; Q 0.00571
E350: L -0.12; F -0.339; D -0.304; S 0.0422; K -0.17; N -0.112; I -0.103; C -0.0435; W 0.0193; P -1.12; A -0.188; Y -0.185; T 0.0414; R -0.162; M 0.00868; V -0.0826; Q -0.13; G -0.128
L355: V -0.0573; H -0.0638; N 0.0266; P -0.132; R -0.00513; E 0.0516; F -0.0288; T 0.059; I -0.0806; A 0.00558; D -0.182; S -0.0259; Q -0.061; K -0.0816; Y 0.0403; M -0.0213; G 0.0028; W -0.0689; C -0.0489
V348: R -1.43; G -1.15; P -1.11; T -0.732; S -1.25; L -0.351; D -1.83; W -1.28; Y -1.02; M -0.551; F -0.996; C -0.104; I -0.0535; Q -1.64; N -1.04; E -0.925; K -1.21; H -1.31; A -0.589
L360: H -1.17; G -0.95; V -0.666; P -1.26; Q -0.916; A -0.845; D -1.19; S -1.32; T -1.26; Y -0.447; F -0.195; M -0.352; N -1.27; I -0.403; K -1.23; R -1.17; E -1.15; C -0.171; W -1.54
C347: N -1.21; K -1.08; D -1.26; T -0.206; S -0.457; A -0.0315; L -0.18; Q -1.57; P -1.08; I -0.0428; F -0.387; Y -0.846; H -1.55; E -1.34; R -1.15; V -0.045; M -0.15; W -1.21; G -0.229
G353: W -0.099; V -0.123; E -0.227; I -0.129; R -0.038; N -0.00787; L -0.135; Q -0.109; C -0.0857; T 0.0569; S -0.0386; Y -0.16; D 0.0347; H -0.144; A 0.00991; K -0.127; M -0.178; F -0.0929; P -0.17
V362: Y -0.434; I -0.125; P -0.881; G -0.901; T -0.028; A -0.284; E -0.932; M -0.403; N -0.669; S -0.406; H -0.608; D -0.671; K -0.0434; F -0.662; W -0.624; L -0.0488; R -0.236; C -0.232; Q -0.414
A357: S 0.0171; P 0.04; E -0.0948; R -0.0515; Q 0.125; Y -0.118; D -0.193; C 0.0134; I -0.0394; K -0.152; F -0.0934; T -0.0252; N 0.104; H -0.147; L -0.0718; W -0.104; M -0.0956; G -0.0641; V -0.0294
L361: N -0.575; G -0.729; M 0.0584; Y -0.508; A -0.284; W -0.755; S -0.625; H -1.22; R -1.12; C -0.101; P -1.01; E -1.08; V -0.0292; F -0.49; T -0.222; D -1.06; I -0.107; K -0.984; Q -0.666
I359: G -0.91; Y -0.266; M -0.00943; V -0.0354; E -0.818; L 0.0476; C -0.249; T 0.0861; K -0.27; F 0.0413; H -0.143; S -0.465; D -0.946; W 0.0132; N -0.425; P -1.08; Q -0.322; A -0.485; R -0.51
A354: R -0.0437; G -0.0387; W -0.0982; N -0.255; H -0.107; T -0.0601; C -0.078; Y -0.11; L -0.0264; K -0.061; V 0.0356; P 0.0108; I -0.0486; S -0.0885; Q -0.0822; F -0.0389; M -0.19; D -0.0478; E -0.0284
L349: E -0.993; I 0.0298; F -0.112; V -0.0456; W -0.668; M 0.0308; H -0.39; Q -1.83; K -1.07; C -0.018; G -1.03; N -0.957; Y -0.257; D -0.966; T -0.236; A -0.352; P -0.901; S -0.842; R -1.15
Q363: K -0.227; Y -0.408; A -0.167; G -0.38; F -0.479; H 0.0355; I -0.184; P -0.208; V -0.293; R 0.0264; D -0.431; L -0.242; C -0.306; S -0.169; N -0.441; E -0.341; M -0.284; W -0.451; T -0.255
Q351: V 0.000574; R 0.0269; N -0.125; M 0.0542; G -0.16; P -0.756; K 0.044; A -0.00592; C -0.0209; H 0.0225; L -0.0629; F -0.101; S -0.0771; I -0.0185; E -0.219; W -0.0304; Y 0.023; D -0.266; T -0.0645
P352: S -0.0991; R -0.124; L -0.0502; E -0.0129; K 0.00765; F -0.188; W -0.38; I -0.461; V -0.096; G -0.0543; T 0.0253; D -0.0437; A -0.0351; Y -0.175
Q358: M -0.074; N -0.131; S -0.152; Y -0.283; H -0.152; P 0.069; K 0.0561; E -0.0404; F -0.316; I -0.163; G -0.334; T 0.145; C 0.0229; A -0.219; R 0.137; L 0.00809; W -0.308; D -0.342; V 0.112
T346: D -0.917; K -0.886; R -0.56; E -1.03; P -0.585; M -0.125; Y -0.168; S -0.168; Q -0.787; H -0.35; W -0.751; I 0.0144; V 0.0305; L -0.0228; F -0.247; G -0.335; N -0.262
